# Assay results from paper PMC9519379 (Cell Reports Medicine, 2022).
# Values joined by “and” are separate entries in the source; they are usually repeats but may differ in a detail not shown here. Equal values may be shown once.
# Target: the molecule itself
protein,measurement,value
H84T-banana lectin (H84T-BanLec) (designed binder) MNGAIKVGAWGGNGGSAFDMGPAYRIISVKIFSGDVVDAVDVTFTYYGKTETRHFGGSGGTPHEIVLQEGEYLVGMKGEFGNYTGVVVVGKLGFSTNKKSYGPFGNTGGTPFSLPIAAGKISGFFGRGGDFIDAIGVYLEP,stoichiometry N,2 and 4
